Source: patent publication US20030186281A1, “Modified tetracycline repressor protein compositions and methods of use” (priority 2001, published 2003)

Test system: tet operator sequence
Experiment: β-galactosidase activity of a tetracycline-regulated promoter in transformed E. coli with revTetR, in the presence and absence of anhydrotetracycline (atc)
Type: cell-based, Escherichia coli
Conditions: for β-Galactosidase Activity, Cultured Without ATC: RevTetR isolate cultured in the absence of anhydrotetracycline (ATC); for β-Galactosidase Activity, Cultured With ATC: RevTetR isolate cultured in the presence of anhydrotetracycline (ATC)
Outline: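 TetR(BD) chimera mutants (TetR(B) residues 1–50, TetR(D) 51–208) expressed in E. coli regulating a tet operator-controlled lacZ. β-Galactosidase measured in Miller units at 28 °C and 37 °C with and without anhydrotetracycline; reported as percent of maximal expression without Tet repressor.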

Molecule | β-Galactosidase Activity, Cultured Without ATC | β-Galactosidase Activity, Cultured With ATC
TetRrevAtc4-20: revTetR(BD) V57V E58K L60V A61T R62G (protein, Modified tetracycline repressor, revTetR(BD) V57V E58K L60V A61T R62G) MSRLDKSKVINSALELLNEVGIEGLTTRKLAQKLGVEQPTLYWHVKNKRALLDALAVKIVTGHHDYSLPAAGESWQSFLRNNAMSFRRALLRYRDGAKVHLGTRPDEKQYDTVETQLRFMTENGFSLRDGLYAISAVSHFTLGAVLEQQEHTAALTDRPAAPDENLPPLLREALQIMDSDDGEQAFLHGLESLIRGFEVQLTALLQIV | 78.478 | 8.048
TetRrevAtc4-48: revTetR(BD) D53N A54S L55L A56P V57V A61A R62L (protein, Modified tetracycline repressor, revTetR(BD) D53N A54S L55L A56P V57V A61A R62L) MSRLDKSKVINSALELLNEVGIEGLTTRKLAQKLGVEQPTLYWHVKNKRALLNSLPPEILALHHDYSLPAAGESWQSFLRNNAMSFRRALLRYRDGAKVHLGTRPDEKQYDTVETQLRFMTENGFSLRDGLYAISAVSHFTLGAVLEQQEHTAALTDRPAAPDENLPPLLREALQIMDSDDGEQAFLHGLESLIRGFEVQLTALLQIV | 110.179 | 16.146
TetRrevAtc4-43: revTetR(BD) L52V A56V V57L I59T A61S (protein, Modified tetracycline repressor, revTetR(BD) L52V A56V V57L I59T A61S) MSRLDKSKVINSALELLNEVGIEGLTTRKLAQKLGVEQPTLYWHVKNKRALVDALVLETLSRHHDYSLPAAGESWQSFLRNNAMSFRRALLRYRDGAKVHLGTRPDEKQYDTVETQLRFMTENGFSLRDGLYAISAVSHFTLGAVLEQQEHTAALTDRPAAPDENLPPLLREALQIMDSDDGEQAFLHGLESLIRGFEVQLTALLQIV | 99.61 | 13.878
TetRrevAtc4-4: revTetR(BD) I59S R62S (protein, Modified tetracycline repressor, revTetR(BD) I59S R62S) MSRLDKSKVINSALELLNEVGIEGLTTRKLAQKLGVEQPTLYWHVKNKRALLDALAVESLASHHDYSLPAAGESWQSFLRNNAMSFRRALLRYRDGAKVHLGTRPDEKQYDTVETQLRFMTENGFSLRDGLYAISAVSHFTLGAVLEQQEHTAALTDRPAAPDENLPPLLREALQIMDSDDGEQAFLHGLESLIRGFEVQLTALLQIV | 70.5665 | 2.5363
TetRrevAtc4-40: revTetR(BD) A56P L60L A61G R62R (protein, Modified tetracycline repressor, revTetR(BD) A56P L60L A61G R62R) MSRLDKSKVINSALELLNEVGIEGLTTRKLAQKLGVEQPTLYWHVKNKRALLDALPVEILGRHHDYSLPAAGESWQSFLRNNAMSFRRALLRYRDGAKVHLGTRPDEKQYDTVETQLRFMTENGFSLRDGLYAISAVSHFTLGAVLEQQEHTAALTDRPAAPDENLPPLLREALQIMDSDDGEQAFLHGLESLIRGFEVQLTALLQIV | 56.743 | 14.428
TetRrevAtc4-22: revTetR(BD) R49H A56P V57L L60M (protein, Modified tetracycline repressor, revTetR(BD) R49H A56P V57L L60M) MSRLDKSKVINSALELLNEVGIEGLTTRKLAQKLGVEQPTLYWHVKNKHALLDALPLEIMARHHDYSLPAAGESWQSFLRNNAMSFRRALLRYRDGAKVHLGTRPDEKQYDTVETQLRFMTENGFSLRDGLYAISAVSHFTLGAVLEQQEHTAALTDRPAAPDENLPPLLREALQIMDSDDGEQAFLHGLESLIRGFEVQLTALLQIV | 80.2859 | 3.7584
TetRrevAtc4-24: revTetR(BD) A56P V57A E58Q H63Q (protein, Modified tetracycline repressor, revTetR(BD) A56P V57A E58Q H63Q) MSRLDKSKVINSALELLNEVGIEGLTTRKLAQKLGVEQPTLYWHVKNKRALLDALPAQILARQHDYSLPAAGESWQSFLRNNAMSFRRALLRYRDGAKVHLGTRPDEKQYDTVETQLRFMTENGFSLRDGLYAISAVSHFTLGAVLEQQEHTAALTDRPAAPDENLPPLLREALQIMDSDDGEQAFLHGLESLIRGFEVQLTALLQIV | 61.649 | 13.63
TetRrevAtc4-28: revTetR(BD) V57V E58K L60V R62G (protein, Modified tetracycline repressor, revTetR(BD) V57V E58K L60V R62G) MSRLDKSKVINSALELLNEVGIEGLTTRKLAQKLGVEQPTLYWHVKNKRALLDALAVKIVAGHHDYSLPAAGESWQSFLRNNAMSFRRALLRYRDGAKVHLGTRPDEKQYDTVETQLRFMTENGFSLRDGLYAISAVSHFTLGAVLEQQEHTAALTDRPAAPDENLPPLLREALQIMDSDDGEQAFLHGLESLIRGFEVQLTALLQIV | 85.141 | 4.217
TetRrevAtc4-5: revTetR(BD) I59F A61S H64Q A97T (protein, Modified tetracycline repressor, revTetR(BD) I59F A61S H64Q A97T) MSRLDKSKVINSALELLNEVGIEGLTTRKLAQKLGVEQPTLYWHVKNKRALLDALAVEFLSRHQDYSLPAAGESWQSFLRNNAMSFRRALLRYRDGTKVHLGTRPDEKQYDTVETQLRFMTENGFSLRDGLYAISAVSHFTLGAVLEQQEHTAALTDRPAAPDENLPPLLREALQIMDSDDGEQAFLHGLESLIRGFEVQLTALLQIV | 98.272 | 12.552
TetRrevAtc4-23: revTetR(BD) A50D L51V L52Q A54A L55L A61S (protein, Modified tetracycline repressor, revTetR(BD) A50D L51V L52Q A54A L55L A61S) MSRLDKSKVINSALELLNEVGIEGLTTRKLAQKLGVEQPTLYWHVKNKRDVQDALAVEILSRHHDYSLPAAGESWQSFLRNNAMSFRRALLRYRDGAKVHLGTRPDEKQYDTVETQLRFMTENGFSLRDGLYAISAVSHFTLGAVLEQQEHTAALTDRPAAPDENLPPLLREALQIMDSDDGEQAFLHGLESLIRGFEVQLTALLQIV | 105.95 | 21.606
TetRrevAtc4-21: revTetR(BD) K6K D53F L55L V57L I59S A61S (protein, Modified tetracycline repressor, revTetR(BD) K6K D53F L55L V57L I59S A61S) MSRLDKSKVINSALELLNEVGIEGLTTRKLAQKLGVEQPTLYWHVKNKRALLFALALESLSRHHDYSLPAAGESWQSFLRNNAMSFRRALLRYRDGAKVHLGTRPDEKQYDTVETQLRFMTENGFSLRDGLYAISAVSHFTLGAVLEQQEHTAALTDRPAAPDENLPPLLREALQIMDSDDGEQAFLHGLESLIRGFEVQLTALLQIV | 104.757 | 16.831
TetRrevAtc4-31: revTetR(BD) A50S D53Y A56G V57I H63Q (protein, Modified tetracycline repressor, revTetR(BD) A50S D53Y A56G V57I H63Q) MSRLDKSKVINSALELLNEVGIEGLTTRKLAQKLGVEQPTLYWHVKNKRSLLYGLGIEILARQHDYSLPAAGESWQSFLRNNAMSFRRALLRYRDGAKVHLGTRPDEKQYDTVETQLRFMTENGFSLRDGLYAISAVSHFTLGAVLEQQEHTAALTDRPAAPDENLPPLLREALQIMDSDDGEQAFLHGLESLIRGFEVQLTALLQIV | 65.039 | 2.181
TetRrevAtc4-52: revTetR(BD) D53F A54T L55M I59S H63Q (protein, Modified tetracycline repressor, revTetR(BD) D53F A54T L55M I59S H63Q) MSRLDKSKVINSALELLNEVGIEGLTTRKLAQKLGVEQPTLYWHVKNKRALLFTMAVESLARQHDYSLPAAGESWQSFLRNNAMSFRRALLRYRDGAKVHLGTRPDEKQYDTVETQLRFMTENGFSLRDGLYAISAVSHFTLGAVLEQQEHTAALTDRPAAPDENLPPLLREALQIMDSDDGEQAFLHGLESLIRGFEVQLTALLQIV | 105.367 | 5.575
TetRrevAtc4-25: revTetR(BD) K48K V57L E58V I59T L60F R62S (protein, Modified tetracycline repressor, revTetR(BD) K48K V57L E58V I59T L60F R62S) MSRLDKSKVINSALELLNEVGIEGLTTRKLAQKLGVEQPTLYWHVKNKRALLDALALVTFASHHDYSLPAAGESWQSFLRNNAMSFRRALLRYRDGAKVHLGTRPDEKQYDTVETQLRFMTENGFSLRDGLYAISAVSHFTLGAVLEQQEHTAALTDRPAAPDENLPPLLREALQIMDSDDGEQAFLHGLESLIRGFEVQLTALLQIV | 98.629 | 12.116
TetRrevAtc4-47: revTetR(BD) L51L E58A I59N H63Y (protein, Modified tetracycline repressor, revTetR(BD) L51L E58A I59N H63Y) MSRLDKSKVINSALELLNEVGIEGLTTRKLAQKLGVEQPTLYWHVKNKRALLDALAVANLERYNDYSLPAAGESWQSFLRNNAMSFRRALLRYRDGAKVHLGTRPDEKQYDTVETQLRFMTENGFSLRDGLYAISAVSHFTLGAVLEQQEHTAALTDRPAAPDENLPPLLREALQIMDSDDGEQAFLHGLESLIRGFEVQLTALLQIV | 83.987 | 13.969
